Changes are numbered by the printed parent chain.
B1: VN: E. coli TyrRS double variant: position 37 Valine, position 195 Asparagine (protein, UniProt P0AGJ9 2-424, looked up, variant Y37V Q195N)
Tyrosine--tRNA ligase: ASSNLIKQLQERGLVAQVTDEEALAERLAQGPIALVCGFDPTADSLHLGHLVPLLCLKRFQQAGHKPVALVGGATGLIGDPSFKAAERKLNTEETVQEWVDKIRKQVAPFLDFDCGENSAIAANNYDWFGNMNVLTFLRDIGKHFSVNQMINKEAVKQRLNREDQGISFTEFSYNLLQGYDFACLNKQYGVVLNIGGSDQWGNITSGIDLTRRLHQNQVFGLTVPLITKADGTKFGKTEGGAVWLDPKKTSPYKFYQFWINTADADVYRFLKFFTFMSIEEINALEEEDKNSGKAPRAQYVLAEQVTRLVHGEEGLQAAKRITECLFSGSLSALSEADFEQLAQDGVPMVEMEKGADLMQALVDSELQPSRGQARKTIASNAITINGEKQSDPEYFFKEEDRLFGRFTLLRRGKKNYCLICWK
B2: AA: E. coli TyrRS double variant: position 37 Alanine, position 195 Alanine (protein, UniProt P0AGJ9 2-424, looked up, variant Y37A Q195A)
Tyrosine--tRNA ligase: B1 Tyrosine--tRNA ligase with V36A, N194A
B3: AS: E. coli TyrRS double variant: position 37 Alanine, position 195 Serine (protein, UniProt P0AGJ9 2-424, looked up, variant Y37A Q195S)
Tyrosine--tRNA ligase: B1 Tyrosine--tRNA ligase with V36A, N194S
B4: 37A: E. coli TyrRS variant: position 37 Alanine, position 195 Glutamine (protein, UniProt P0AGJ9 2-424, looked up, variant Y37A)
Tyrosine--tRNA ligase: B1 Tyrosine--tRNA ligase with V36A, N194Q
B5: VS: E. coli TyrRS double variant: position 37 Valine, position 195 Serine (protein, UniProt P0AGJ9 2-424, looked up, variant Y37V Q195S)
Tyrosine--tRNA ligase: B1 Tyrosine--tRNA ligase with N194S
B6: LC: E. coli TyrRS double variant: position 37 Leucine, position 195 Cysteine (protein, UniProt P0AGJ9 2-424, looked up, variant Y37L Q195C)
Tyrosine--tRNA ligase: B1 Tyrosine--tRNA ligase with V36L, N194C
B7: LN: E. coli TyrRS double variant: position 37 Leucine, position 195 Asparagine (protein, UniProt P0AGJ9 2-424, looked up, variant Y37L Q195N)
Tyrosine--tRNA ligase: B1 Tyrosine--tRNA ligase with V36L
B8: AC: E. coli TyrRS double variant: position 37 Alanine, position 195 Cysteine (protein, UniProt P0AGJ9 2-424, looked up, variant Y37A Q195C)
Tyrosine--tRNA ligase: B1 Tyrosine--tRNA ligase with V36A, N194C
B9: AN: E. coli TyrRS double variant: position 37 Alanine, position 195 Asparagine (protein, UniProt P0AGJ9 2-424, looked up, variant Y37A Q195N)
Tyrosine--tRNA ligase: B1 Tyrosine--tRNA ligase with V36A
B10: IN: E. coli TyrRS double variant: position 37 Isoleucine, position 195 Asparagine (protein, UniProt P0AGJ9 2-424, looked up, variant Y37I Q195N)
Tyrosine--tRNA ligase: B1 Tyrosine--tRNA ligase with V36I
B11: LA: E. coli TyrRS double variant: position 37 Leucine, position 195 Alanine (protein, UniProt P0AGJ9 2-424, looked up, variant Y37L Q195A)
Tyrosine--tRNA ligase: B1 Tyrosine--tRNA ligase with V36L, N194A
B12: IA: E. coli TyrRS double variant: position 37 Isoleucine, position 195 Alanine (protein, UniProt P0AGJ9 2-424, looked up, variant Y37I Q195A)
Tyrosine--tRNA ligase: B1 Tyrosine--tRNA ligase with V36I, N194A
B13: Wild-type: wild-type tyrosyl-tRNA synthetase of E. coli (SEQ ID NO: 1): position 37 Tyrosine, position 195 Glutamine (protein, listed as Escherichia coli)
chain: MASSNLIKQLQERGLVAQVTDEEALAERLAQGPIALYCGFDPTADSLHLGHLVPLLCLKRFQQAGHKPVALVGGATGLIGDPSFKAAERKLNTEETVQEWVDKIRKQVAPFLDFDCGENSAIAANNYDWFGNMNVLTFLRDIGKHFSVNQMINKEAVKQRLNREDQGISFTEFSYNLLQGYDFACLNKQYGVVLQIGGSDQWGNITSGIDLTRRLHQNQVFGLTVPLITKADGTKFGKTEGGAVWLDPKKTSPYKFYQFWINTADADVYRFLKFFTFMSIEEINALEEEDKNSGKAPRAQYVLAEQVTRLVHGEEGLQAAKRITECLFSGSLSALSEADFEQLAQDGVPMVEMEKGADLMQALVDSELQPSRGQARKTIASNAITINGEKQSDPEYFFKEEDRLFGRFTLLRRGKKNYCLICWK

What was measured:
Format in all cases: biochemical
[1] = Aminoacylation reaction, simplified Lloyd's method, inorganic phosphate detected with Biomol green; design: key: ***: the reaction could be detected strongly at 25 nM; **: strongly at 250 nM; *: weakly at 250 nM; the activity is high in the order of *** > ** > * > —; conditions: Table 3; 3-iodotyrosine 1 mM; 37° C. for 4 min
Protocol: (§1) In the first method, Lloyd's method (Nucleic Acids Research, 23:2886-2892, 1995) where inorganic phosphate produced by pyrophosphatase-drived hydrolysis of pyrophosphate which was one of the reaction products of the aminoacylation reactions was quantified was simplified, and the inorganic phosphate was detected using Biomol green (Funakoshi) to carry out the measurement of the aminoacylation reaction.
(§2) Amino acid concentrations were 200 μM and 1 mM for tyrosine and 3-iodotyrosine, respectively.
(§3) The method where the aminoacylation reaction is measured by quantifying inorganic phosphate produced by pyrophosphatase-drived hydrolysis of pyrophosphate which is one of reaction products of the aminoacylation has been described by Lloyd et al. (Nucleic Acids Research, 23:2886-2892, 1995). In one method of the invention, this method was simplified and the aminoacylation reaction was measured by the detection of inorganic phosphate using Biomol green (Funakoshi). Each enzyme obtained was incubated with 0.05 ml of the buffer B containing 1 mM ATP (Seikagaku Corporation), 30 μM purified crude tyrosyl-tRNA, and 100 μM tyrosine or 0.5 mM 3-iodotyrosine at 37° C. for one hour. To stop the reaction, 0.1 ml of Bio mol green was added. Absorbance of its supernatant was measured at 630 nm.

[2] = as above; design: key: ***: the aminoacylation reaction was detected by a microplate reader in the reaction at enzyme concentrations of 50 nM; **: 500 nM; *: 5 μM; the activity is high in the order of *** > ** > * > —; conditions: tyrosine 200 μM, 37° C. for 4 min
Protocol: as §1, §2
as §3, with “Each enzyme obtained was incubated with 0.05 ml of the buffer B containing 1 mM ATP (Seikagaku Corporation), 30 μM purified crude tyrosyl-tRNA, and 100 μM tyrosine or 0.5 mM 3-iodotyrosine at 37° C. for one hour.” left out

[3] = Aminoacylation activity by Lloyd's method (release of pyrophosphates); conditions: for relative tyrosine analogue to tyrosine ratio: 3-iodotyrosine versus tyrosine, from Table 4; for Initial velocity of release of pyrophosphates, 3-iodotyrosine / Initial velocity of release of pyrophosphates, Tyrosine: at 37° C.; for Initial velocity of release of pyrophosphates, 3-iodotyrosine: 200 μM 3-iodotyrosine; for Initial velocity of release of pyrophosphates, Tyrosine: 200 μM tyrosine
Protocol: In the second method, Lloyd's method (Nucleic Acids Research, 23:2886-2892, 1995) was carried out without alteration.
In the second method, the activity was assayed by Lloyd's method (Nucleic Acids Research, 23:2886-2892, 1995). Each enzyme obtained was incubated with 0.4 ml of the buffer B containing 1 mM ATP (Seikagaku Corporation), 100 μM purified crude tyrosyl-tRNA, 200 μM tyrosine or 3-iodotyrosine at 37° C. for 6 min. The aminoacylation activity was represented as concentrations of released phosphate per min.

[4] = Aminoacylation reaction, simplified Lloyd's method, inorganic phosphate detected with Biomol green; design: key: ***: the aminoacylation reaction was detected by a microplate reader in the reaction at enzyme concentrations of 50 nM; **: 500 nM; *: 5 μM; the activity is high in the order of *** > ** > * > —; conditions: 3-iodotyrosine 1 mM, 37° C. for 4 min
Protocol: as §1, §2, §3

[5] = as above; design: key: ***: the reaction could be detected strongly at 25 nM; **: strongly at 250 nM; *: weakly at 250 nM; the activity is high in the order of *** > ** > * > —; conditions: Table 3; tyrosine 200 μM; 37° C. for 4 min
Protocol: as §1, §2
as §3, with “Each enzyme obtained was incubated with 0.05 ml of the buffer B containing 1 mM ATP (Seikagaku Corporation), 30 μM purified crude tyrosyl-tRNA, and 100 μM tyrosine or 0.5 mM 3-iodotyrosine at 37° C. for one hour.” left out

Molecule | Aminoacylation activity, 3-iodotyrosine [1] | Aminoacylation activity, Tyrosine ([2]; Table 3) | relative tyrosine analogue to tyrosine ratio [3] | Initial velocity of release of pyrophosphates, 3-iodotyrosine [3] | Initial velocity of release of pyrophosphates, Tyrosine [3] | Aminoacylation activity, 3-iodotyrosine ([4]; Table 3) | Aminoacylation activity, Tyrosine [5] | Aminoacylation activity, 3-iodotyrosine ([4]; Table 2) | Aminoacylation activity, Tyrosine ([2]; Table 2)
B1 | ** | — | inferior to VC | 6.9 nM PPi/min/nM enzyme | 2.1 nM PPi/min/nM enzyme |  |  |  | 
B2 |  | — |  |  |  | — |  |  | 
B3 | * |  |  |  |  |  | * |  | 
B4 |  |  |  | 12 nM PPi/min/nM enzyme | 51 nM PPi/min/nM enzyme |  |  | *** | ***
B5 | ** |  | inferior to VC | 18 nM PPi/min/nM enzyme | 19 nM PPi/min/nM enzyme |  | ** |  | 
B6 | * |  |  |  |  |  | * |  | 
B7 |  |  |  |  |  | — | * |  | 
B8 | ** |  | inferior to VC | 3.1 nM PPi/min/nM enzyme | 1.0 nM PPi/min/nM enzyme |  | * |  | 
B9 |  | — |  |  |  | — |  |  | 
B10 |  | — |  |  |  | — |  |  | 
B11 |  |  |  |  |  | — | * |  | 
B12 | * |  |  |  |  |  | * |  | 
B13 |  |  |  | <0.05 nM PPi/min/nM enzyme | 400 nM PPi/min/nM enzyme | — | *** | — | ***

Source: patent publication US7393670B2, “Tyrosyl-tRNA synthetase variants” (Japan Science and Technology Agency, priority 2001, dated 2008)
